From PMC10786891, “Massively parallel profiling of RNA-targeting CRISPR-Cas13d” come the findings set out here.

Sequences and labels used below:
T1: EsCas13d, nuclease-dead (Eubacterium siraeum, UniProt B0MS50, R295A;H300A;R849A;H854A)
T1 sequence: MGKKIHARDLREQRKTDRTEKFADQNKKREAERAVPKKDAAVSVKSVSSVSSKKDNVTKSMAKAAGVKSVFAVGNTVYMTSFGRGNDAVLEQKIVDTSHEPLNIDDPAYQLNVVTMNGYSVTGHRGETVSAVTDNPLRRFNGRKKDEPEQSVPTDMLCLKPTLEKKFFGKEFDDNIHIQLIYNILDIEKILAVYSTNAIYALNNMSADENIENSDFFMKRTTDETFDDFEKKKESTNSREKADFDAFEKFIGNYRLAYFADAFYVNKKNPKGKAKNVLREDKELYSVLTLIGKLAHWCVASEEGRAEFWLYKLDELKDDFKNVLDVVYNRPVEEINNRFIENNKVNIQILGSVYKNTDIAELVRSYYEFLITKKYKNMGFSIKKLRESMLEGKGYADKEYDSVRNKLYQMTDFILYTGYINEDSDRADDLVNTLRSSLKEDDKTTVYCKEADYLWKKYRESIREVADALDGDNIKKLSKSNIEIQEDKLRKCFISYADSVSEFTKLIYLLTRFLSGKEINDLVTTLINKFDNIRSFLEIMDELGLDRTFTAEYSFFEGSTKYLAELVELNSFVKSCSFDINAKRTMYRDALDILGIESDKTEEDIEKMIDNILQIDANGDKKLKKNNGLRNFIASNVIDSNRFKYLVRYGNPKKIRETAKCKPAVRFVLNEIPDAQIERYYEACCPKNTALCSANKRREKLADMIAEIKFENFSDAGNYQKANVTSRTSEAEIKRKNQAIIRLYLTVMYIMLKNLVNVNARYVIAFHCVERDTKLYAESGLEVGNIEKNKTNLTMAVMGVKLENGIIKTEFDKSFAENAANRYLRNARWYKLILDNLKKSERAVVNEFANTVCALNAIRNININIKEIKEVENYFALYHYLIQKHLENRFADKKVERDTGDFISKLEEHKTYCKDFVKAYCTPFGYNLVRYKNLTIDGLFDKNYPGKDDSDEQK

B1: target 1 MT 5'PFS GGG 3'PFS AUG (mixed)
RNA 1: CACCCGUGCAAAAAUGCAGGGGUCUAAAACUGAGCGGAUAACCUCUCUAUGG
RNA 2: GGGAAUGGAUCCACAUCUACGAAUUCGGGCCAUAGAGAGGUUAUCCGCUCAAUGAGAUCGGAAGAGCACACGU
B2: target 1 MT 5'PFS GUA 3'PFS AUG (mixed)
RNA 1: B1 RNA 1
RNA 2: B1 RNA 2 with G28U, G29A
B3: target 1 MT 5'PFS GUA 3'PFS AUC (mixed)
RNA 1: B1 RNA 1
RNA 2: B1 RNA 2 with G28U, G29A, G54C
B4: target 1 insC 3' of 17,insU 3' of 4 (mixed)
RNA 1: B1 RNA 1
RNA 2: GGGAAUGGAUCCACAUCUACGAAUUCGUACCAUAGCAGAGGUUAUCCGCUUCACCGAGAUCGGAAGAGCACACGU
B5: target 1 MT 5'PFS UAA 3'PFS CCU (mixed)
RNA 1: B1 RNA 1
RNA 2: B1 RNA 2 with G27U, G28A, G29A, A52C, U53C, G54U
B6: target 1 MT 5'PFS GGG 3'PFS AUA (mixed)
RNA 1: B1 RNA 1
RNA 2: B1 RNA 2 with G54A
B7: target 1 MT 5'PFS GUG 3'PFS UCA (mixed)
RNA 1: B1 RNA 1
RNA 2: B1 RNA 2 with G28U, A52U, U53C, G54A
B8: target 1 MT 5'PFS GUG 3'PFS UCG (mixed)
RNA 1: B1 RNA 1
RNA 2: B1 RNA 2 with G28U, A52U, U53C
B9: target 1 MT 5'PFS CUA 3'PFS UUG (mixed)
RNA 1: B1 RNA 1
RNA 2: B1 RNA 2 with G27C, G28U, G29A, A52U
B10: target 1 MT 5'PFS GUA 3'PFS AUU (mixed)
RNA 1: B1 RNA 1
RNA 2: B1 RNA 2 with G28U, G29A, G54U
B11: target 1 MT 5'PFS UAC 3'PFS UUG (mixed)
RNA 1: B1 RNA 1
RNA 2: B1 RNA 2 with G27U, G28A, G29C, A52U
B12: target 1 MT 5'PFS AGG 3'PFS UCG (mixed)
RNA 1: B1 RNA 1
RNA 2: B1 RNA 2 with G27A, A52U, U53C
B13: target 1 MT 5'PFS CUU 3'PFS UUC (mixed)
RNA 1: B1 RNA 1
RNA 2: B1 RNA 2 with G27C, G28U, G29U, A52U, G54C
B14: target 1 MT 5'PFS CUU 3'PFS UUA (mixed)
RNA 1: B1 RNA 1
RNA 2: B1 RNA 2 with G27C, G28U, G29U, A52U, G54A
B15: target 1 MT 5'PFS CUU 3'PFS UUG (mixed)
RNA 1: B1 RNA 1
RNA 2: B1 RNA 2 with G27C, G28U, G29U, A52U
B16: target 1 U8A,U19C (mixed)
RNA 1: B1 RNA 1
RNA 2: B1 RNA 2 with G28U, G29A, U33C, U44A, A52C, U53C
B17: target 1 MT 5'PFS GGG 3'PFS AUC (mixed)
RNA 1: B1 RNA 1
RNA 2: B1 RNA 2 with G54C
B18: target 1 MT 5'PFS CUA 3'PFS UUC (mixed)
RNA 1: B1 RNA 1
RNA 2: B1 RNA 2 with G27C, G28U, G29A, A52U, G54C
B19: target 1 MT 5'PFS AGA 3'PFS UUA (mixed)
RNA 1: B1 RNA 1
RNA 2: B1 RNA 2 with G27A, G29A, A52U, G54A
B20: target 1 MT 5'PFS UUA 3'PFS UGA (mixed)
RNA 1: B1 RNA 1
RNA 2: B1 RNA 2 with G27U, G28U, G29A, A52U, U53G, G54A
B21: target 1 MT 5'PFS AGA 3'PFS UUU (mixed)
RNA 1: B1 RNA 1
RNA 2: B1 RNA 2 with G27A, G29A, A52U, G54U
B22: target 1 MT 5'PFS GUG 3'PFS UCC (mixed)
RNA 1: B1 RNA 1
RNA 2: B1 RNA 2 with G28U, A52U, U53C, G54C
B23: target 1 MT 5'PFS AGG 3'PFS UCU (mixed)
RNA 1: B1 RNA 1
RNA 2: B1 RNA 2 with G27A, A52U, U53C, G54U
B24: target 1 MT 5'PFS AGA 3'PFS UUG (mixed)
RNA 1: B1 RNA 1
RNA 2: B1 RNA 2 with G27A, G29A, A52U
B25: target 1 MT 5'PFS CCU 3'PFS UUG (mixed)
RNA 1: B1 RNA 1
RNA 2: B1 RNA 2 with G27C, G28C, G29U, A52U
B26: target 1 MT 5'PFS GAA 3'PFS ACU (mixed)
RNA 1: B1 RNA 1
RNA 2: B1 RNA 2 with G28A, G29A, U53C, G54U
B27: target 1 MT 5'PFS ACG 3'PFS UCU (mixed)
RNA 1: B1 RNA 1
RNA 2: B1 RNA 2 with G27A, G28C, A52U, U53C, G54U
B28: target 1 MT 5'PFS UAA 3'PFS CCG (mixed)
RNA 1: B1 RNA 1
RNA 2: B1 RNA 2 with G27U, G28A, G29A, A52C, U53C
B29: target 1 MT 5'PFS GGA 3'PFS CGA (mixed)
RNA 1: B1 RNA 1
RNA 2: B1 RNA 2 with G29A, A52C, U53G, G54A
B30: target 1 MT 5'PFS GGA 3'PFS CGG (mixed)
RNA 1: B1 RNA 1
RNA 2: B1 RNA 2 with G29A, A52C, U53G
B31: target 1 MT 5'PFS ACG 3'PFS UCC (mixed)
RNA 1: B1 RNA 1
RNA 2: B1 RNA 2 with G27A, G28C, A52U, U53C, G54C
B32: target 1 MT 5'PFS GGA 3'PFS CGC (mixed)
RNA 1: B1 RNA 1
RNA 2: B1 RNA 2 with G29A, A52C, U53G, G54C
B33: target 1 MT 5'PFS CCU 3'PFS UUC (mixed)
RNA 1: B1 RNA 1
RNA 2: B1 RNA 2 with G27C, G28C, G29U, A52U, G54C
B34: target 1 MT 5'PFS CCU 3'PFS UUA (mixed)
RNA 1: B1 RNA 1
RNA 2: B1 RNA 2 with G27C, G28C, G29U, A52U, G54A
B35: target 1 C6U,G12C (mixed)
RNA 1: B1 RNA 1
RNA 2: B1 RNA 2 with G28U, G29A, G40C, C46U, A52C, U53C
B36: target 1 MT 5'PFS GUA 3'PFS AUA (mixed)
RNA 1: B1 RNA 1
RNA 2: B1 RNA 2 with G28U, G29A, G54A
B37: target 1 MT 5'PFS ACG 3'PFS UCG (mixed)
RNA 1: B1 RNA 1
RNA 2: B1 RNA 2 with G27A, G28C, A52U, U53C
B38: target 1 MT 5'PFS AGA 3'PFS UUC (mixed)
RNA 1: B1 RNA 1
RNA 2: B1 RNA 2 with G27A, G29A, A52U, G54C

Substitutions are numbered along the chain they refer to. Names may count otherwise.

In this data set the target is T1, EsCas13d, nuclease-dead. Briefly: crRNA (strand 1, pre-loaded); Mg2+; 40 mM Tris-HCl pH 7.5, 150 mM NaCl, 6 mM MgCl2, 1 mM DTT, 0.1% Tween-20, 0.2 mg/ml BSA; 25 C; 10 min per concentration, then washed. As to conditions: tags: His6-TwinStrep-SUMO cleaved; N-terminal SNAP kept (SNAP-Surface 488); label: 3' end held by stalled T7 RNA polymerase.
As a reminder, the Kd is the constant that tells how readily two partners part at equilibrium. A lower Kd goes with a tighter complex. In the case of B1, binding was characterised by a dissociation constant (Kd) of 26.5 ± 4 nM. The same measure for B2: 14 ± 0.85 nM; for B3: 14.8 ± 1.45 nM. The same measure for B4: 46 ± 4 nM; for B5: 22 ± 11 nM; for B6: 32 ± 6.5 nM. B7: binding was put at a Kd of 14.5 ± 1.45 nM. The same measure for B8: 10.5 ± 0.62 nM; for B9: 5.7 ± 0.65 nM; for B10: 12.9 ± 1.15 nM.

With B11, the Kd was 7.55 ± 1.15 nM. The molecule B12 gave a Kd of 51 ± 21 nM. Molecule B13 showed a Kd of 14.2 ± 2.55 nM. Compared with the last molecule, the Kd is about 3.6-fold lower.

As to B14, the Kd is 20.9 ± 4.25 nM. The same measure for B15: 29.5 ± 7.5 nM. As to B16, the Kd turned out to be 56 ± 9 nM.

The molecule B17 registered a Kd of 35.5 ± 9.5 nM.

B18 had a Kd of 6.85 ± 2.1 nM. Consider B19, for which binding was put at a Kd of 42 ± 11 nM. The same measure for B20: 100 ± 40 nM; for B21: 27.5 ± 11 nM; for B22: 10.9 ± 1.1 nM. B23 registered a Kd of 30.5 ± 9 nM. Against the preceding molecule, the Kd is about 2.8-fold higher.

With B24, the affinity, expressed as Kd, was 50 ± 18 nM.

B25 gave a Kd of 11.7 ± 2.5 nM. Molecule B26 showed a Kd of 34 ± 12.5 nM. B27 gave a Kd of 9.65 ± 2.55 nM.

As to B28, binding was characterised by a dissociation constant (Kd) of 47.5 ± 15.5 nM. This Kd lies about 4.9-fold higher than the previous one. B29 showed a Kd of 33.5 ± 10 nM. The same measure for B30: 20.6 ± 3.8 nM; for B31: about 31 nM; for B32: 28.5 ± 11 nM. On to B33, for which the Kd came out at 32.5 ± 9.5 nM.

Take B34: the affinity, expressed as Kd, was 14.3 ± 2.75 nM. In turn, B35 came in with a dissociation constant Kd of 12.9 ± 1.1 nM. The same measure for B36: 14.1 ± 1.15 nM; for B37: 24 ± 6 nM; for B38: about 22 nM.
